Test results from the nanobody polyreactivity screen of Harvey et al. (2022).

Experiment: yeast display, Sf9 membrane polyspecificity reagent, FACS + sequencing; frameworks hold sequencing errors
Procedure, shortened: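 Using colony PCR, genes from sorted yeast display clones were amplified, then sequenced on MiSeq at 2 × 250 and filtered by CDR length. The clones had been stained with 10% biotinylated, detergent-solubilized Sf9 membrane reagent for 1 hour at 4 °C and sorted by FACS into low and high (top ~1%) gates on anti-HA and streptavidin fluorescence. Polyreactivity labels come from the gate of origin.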

| Sequence | polyreactivity (PSR sort gate) |
| --- | --- |
| QVQLVESGGGLVQAGGSLRLSCAASGRTLRYNAMGWDRQAPGKERELVAAISTRGTNTYYADSVKGRFTISRDNAKNTVYLQMNSLKPEDTAVYYCAAKKGGYPYSVYSGTRHNYWGQGTQVTVSS | high polyreactivity |
| QVQLVESGGGLVQAGGSLRLSCAASGLIFIVYAMGWSRQAPGKERELVAAISWSGGSTYYADSVKGRFTISRDNAKNTVYLQMNSLKPEDTAVYYCAAPSSVRGKVISADYGYWGQGTQVTVSS | high polyreactivity |
| QVQLVDSGGGLVQAGGSLRLSCAASGSIFPSYAIGWYRQAPGKERELVATIGRGGTTNYADSVKGRFTISRDNAKNTVYLQMNSLKPEDTSVYYCNAERIWRYKYGYDYWGQGTQVTVSS | high polyreactivity |
| QVQLVESGGRLVQAGGSLRLSCAASGRIIGVNAMGWYRQAPGKERELVATITSGGSTYADSVKGRFTISRDNAKNTVYLQMNSLKPEDTAVYFCNALIYKRVTRYPYVRLMDYWGQGTQVTVSS | high polyreactivity |
| QVQLVESGGGVVQAGGSLRLSCAASGRIFRNNAMGWYRQAPGKERVLVAGIRGGGSTYYADSVKGRFTISRDNAKNTVYLQMNSLKPEDTAVYYCNAEASRYVGYGAWQTERDYWGQGTQVTVSS | low polyreactivity |
| QVHLVESGGGLVQAGGSLRLSCAASGIIFGRNVMGWYRQAPGKERELVAAISSSGGRTYYADSVKGRFTISRDNAKNTVYLQMNSLNPEVTAVYYCAADEVTKKNSFPRIMDYWGQGTQVTVSS | high polyreactivity |
| QVQLVESGGGLVQAGGSLRLSCAASGFIFSRYVMGWYRQAPGKEREFVAAISSSGGSTYYADSVKGRFTISRDNAKNTVYLQMNSLKPEDTAVYYCATRLGRYYRVGFDYWGQGNQVTVSS | high polyreactivity |
| QVQLVESRGGLVQAGGSLRLSCAASGSTRGSNAMGRYRQAPGKEMELVAAITWSGGTTYYADSVKGRFTISRDNAKNTVYLQMHSLKPEDTSVYYCATGQSVIYRYEYWGQGTQVTVSS | low polyreactivity |
| QVQLVESGGGLVQAGGSLRLTCAASGYTFRRYAMGWYRQAPGKERELVAAITRDDSTNYADSVKGRFTISRDNGKNTVYLQMNSLKPEDTAVYYCAAAVGLRRYSPLHLLYYYWGQGTQVTVSS | high polyreactivity |
| QVQLVESGGGLVQAVVSLRLSCAASGGTITSYAMVSSRQAPGKERELVAAITRSGGSTYYADSVKGRFTISRDNAKNTVYLQMKSLKPEDTAVYYCAARYWHSYGYWGQGTQVTVSS | high polyreactivity |
| QVQLVESGGGLVQAGGSLRLSCAASGFNYGIYAMGWYRQAPGKERELVAAISRGGGSTYYADSVKGRFTISRDNAKNTVYLQMNSLKPEDTAVYYCAARYQSPYDYWGQGTQVTVSS | high polyreactivity |
| QVQLVESGGAFVQAGGTLRLICAASGRIFLYYAMGWYRHAPGKERELFAAIRISGGSTYYADSVKGRFTISRDNAKNTVYLQMNSLNAVDPAVYYCNADHKTIYPKYRGRFYYWGQGTQVTVTS | high polyreactivity |
| QVQIVESGGGLVQAGGSLRLSCAASGRTFYSYAMGWYRQAPGKERELVAAIRWPGVRTYYADSVKGRFTISRDNAKNSFYLQMNSLKPEDTAVYYCAVYRYSGKGYRGPRDYWGQGTQVTVSS | high polyreactivity |
| QVQLVESGGGLVQAGGSLRLSCAASGFIFAPNAMGWYRQAPGKERELVAAISQSGASTFYADSVKGRFTISRDNAKNTVYFQMNSLKPEDTAVYYCAAPPYYSYDYWGQGTQVTVSS | low polyreactivity |
| QVHLVESGGGLVQAGGSIRLSCAASGFIFGSYAMGWYRPAPGKERELVAVISASGGGTYYADSVKGRFTISRDNAKYTVYLQMNSLKPEDTAVYYCAAKGVRGFAGYGYWGQGTQVTVSS | high polyreactivity |
| QVQLVESGGGLVQAGGSLRLSCAASGFIFSRYAMGWYRQAPGKERELVAAISSGGRTNYADSVKGRFTISRDNAKNTVYLQMNSLKPEDTAVYFCAALLRGRSGQFEYDYWGQGTQVTVSS | low polyreactivity |
| HVQLVESGGGLVQAGGSLRLSCAASGRIFGAYAMGWYRQAPGKEREFVAAITSRGGNTYYADSVKGRFTISRDNAKNTVYLQMNSLIPEDTAVYYCAARHDKRRQYYVGQSAFDYWGQGTQVTVSS | low polyreactivity |
| QVQLVESGGGLGQAGGSLGLSCAASGRTFYVNAMGWYRQAPGKERELVAAISWSGGSTYYADSVKGRFTISRDNAKNTVYLPINSLNPEDTAVYYCAAEDIEDYEYWGQGTQVTVSS | low polyreactivity |
| QVQLVESGGGLVQAGGSLRLSCAASGSILDPNAMGWYRQAPGKESELVANITNGGRTNFADSVKGRFTISRDNAKNTVYFQMNRLKPEDTAVYYCAKDSTFNSVTVLAPIIYDSWGQATQVTVSS | low polyreactivity |
| QVQLVESGGGLVQAGGSLRLSCAASGSIFYRNTMGWYRQAPVKERELVAAITSSGDSTYYADSVKGRFTISRDNAKNTVYFQMNSLKPEDTAVYYCAKDQHDFLEALYDSWGQGTQVTVSS | low polyreactivity |
| QVQLVESGGGLVQAGGSLRLSCAASGYIFVSNAMGWNRQEPGKERELVAPISGSGGSTYYADSVKGRFTISRDIAKNTVYLQMNSLKPEDTAVYSCAADYATVTWRGIAYDYWGQGTQVTVSS | low polyreactivity |
| QVQLVESGGGLVQAGGSLRLSCAASGSIFVTYAMGWYRQAPGKERELVAAITGRDGITYADSVKGRFTISCDNAKNTVYVQMNSLKPEDTAVYYCAAVSHGVYYQYRRRYYSWGQGTQVTVSS | high polyreactivity |

| Sequence | polyreactivity (PSR sort gate) |
| --- | --- |
| QVQLVESGGGLVQAGGSLRLSCAASGSTVDFNAMGWYRQAPGKERELVAGISRDGGSTYYADSVKGRFTISRDYAKNTVYLEMNSLKPEDTAVYYCAVEAWSVPPYDYWGQGTQVTVSS | low polyreactivity |
| QVQHVESGGGLVQAGGSLRLSCAASGRIFRDNAMGRNRQAPGKEREVVAAISRRGGSTYYADSVKGRFTISRDNAKNTVYLQLNSLKPEDTAVYYCNKTTHSRTFRYDYWGQGTQVTVSS | low polyreactivity |
| QVQLGESGGGLVQAGGSLRLSCAASGRIFYLNAMGWYRQAPGKERELVAVITGNAGCTYYADSVKGRFTISRDHAKNTVYLQMNSLKPEDTAVYYCNALRLVPWSDALYDYWGQGTQVTVSS | low polyreactivity |
| QVQLVESGGGLVQAGGSLRLSCAASGHTLGSYAMGWYRQAPGKERELVAAISSRGGTYYADSVKGRFTISRDNAKNTGYFLMNSLKPDDTAVYYWDAVSGSSKMYYWGQGTQVTVSS | high polyreactivity |
| QVQLVESGGGLVQAGGSLRLSCAASGFIFLGNAMGWYRPAPGKERDLVAAISSGGSTYADSVKGRFTISRDNAKYTVYLQMNSLKPEDTAVYYCAVDRAFRAQNYHEYDYWGQGTQVTVSS | low polyreactivity |
| QVQLVESGGGLVQAGGSLRLSCAASGRTFKSNAMGWYRQAPGKERELVATINYSATSTYYADSVKGSFTISRDNAKNTVYLQMNSLKPEDTAVYYCNVACGYSYRGLDYWGQVTQVTVSS | high polyreactivity |
| QVQLVESGGGLVQAGGSLRLSCAASGRIFLTNTMGWYRQAPGKERELVAGISRGGRTYDADSVKGRFTISRDNAKNTVYLLKNSLKPEDTAVYYCAGRHRTPIYPYKRDYWGQGTQVSVSS | high polyreactivity |
| QVQLVESGGGLVQAGGSLRLSCAASGSTLAQYAMGWYRQAPGKERELVAAISRRGASTYYADSVKGRFTISRDNAKNTGYLQMNSLKPEDTAVYYCNAVRGEKMGYWGQGTQVTVSS | high polyreactivity |
| QVQLVESGGGLVQAGGSLRLSCAASGIIFFRYAMGWYRQAPGKERELVAAISLSGGRTYYADSVKGRFTISRDNANNTVYLQMNSVKPEDTAVYYCNTLHRYSSQRYDYWGQGTQVTVSS | high polyreactivity |
| QVQLVESGGGLVQAGGSLRLSCAASGSTFARYAMGWYRQAPGKERELVAGISTSGGRTYYADSVKGRFTISRDNAKNTVYLQMNSLKPEDTAVYYCAKALSQTWYDGQYGYWGQGTQVTVSS | low polyreactivity |
| QVQLVESGGGLVQAGGSLRLSSAASGSIFWYYAMGWYRQAPGKERELVADITIRGGRTYYADSVKGRFTISRDNAKNTVYFQMNSLKPEDTAVFYCAADWEYWGFGLYDYWGQGTQVTVSS | low polyreactivity |
| QVQLVESGGGLVQAGGSLRLSCAASGNIFGFYTMGWYRQAPGKERELVAAIRSRGGSTNYADSVKGRFTISRDNAKNTVYLQMNSLKPEDTAVDYCAADPRYISYDYWGQGTQVTVSS | low polyreactivity |
| QVQLVESGGGLVQAGGSLRLSCAASGFIFHVYAMGWYRQAPGKERELVARITSSGGNTFYADSVKGRFTISRDNAKNTVYLQMNSLKPEDTAVYYCAKSSIYTDYDYWGQGSQVTVSS | low polyreactivity |
| QVQLVESGGGLVQAGGSLRLSCAASGYIFTGNAMGWYRQAPGKEREFVAAISWSGGSTYYADSVKGRFTISRDNAKNTVYLQMNSLKPEDTAVYDCNKYRPYGRIYHLAYGRDDWGQGTQVTVSS | high polyreactivity |
| QVQLVESGGGLVQAGGSLRLSCAASGFTFGAYAKGWSRQAPGKEWELVASISWSGTSTYYADSVKGRFTISRDNAKNTVYLQMNSLKPEDTAVYYCAAGYRSTRYDYWGQGTQVTVSS | high polyreactivity |
| QVQLVESGGGLVQAGGSLRLSCSASGSTIPVYAMGWYRQPPGKERELVAAITGSGARTYYADSVKGRFTFSRDNAKNTVYLQMNSLKPEDTAVYYCAKRTVIAVYGFPYRYGMNYWGQGTQVTVSS | high polyreactivity |
| QVQLVESGGGLVQAGGSLRLSCAASGSIFFTNTMGWYRKAPGKERELVAAITSGGSTNYADSVKGRFTISRDNAKNTVYLQMNSLKPEDTAVYYCAARYQPWLKYDFDSWGQGTQVTVSS | low polyreactivity |
| QVQLVESVGGLVQAGGSLRLSCAASGRTFAAYAMGWYRQAPGKERELVAGITSSSVRTYYADSVKGRFTISRDNAKNTVYLQMNSLKPEDTAVYYCNARADGSSSRWRPYSKFYYWGQGTQVTVSS | low polyreactivity |
| QVQLVESGGGLVQAGGSLRLSCAASGSTFDYYAMGWYRQAPGKERELVAAISSSGSSTYYADSVKGRFTISRDNAKNTVYLQMNSLKPEDTAVYYCNALSNVPYDYWGQGTQVTVSS | low polyreactivity |
| QVQLVESGGGLVQAGGSLRLSCAASGRTFVTYAMGWYRQAPGKEREFVAAISRNGGSTYYADSVKGRFTISRDNAKNTVYLQMNSLKPEDTAVYYCAAYAYIFLDWGGYPYYLYEYDYWGQGTQVTVSS | low polyreactivity |
| QVQLVESGGGLVQAGGSLRLSCAASGFIFSTNAMGWYRQAPGKERELVATIRSGGSTNYADSVKGRFTISRDNAKNTVYLQMNSLKPEDTAVYYCAAEPPGSTYEGGYWGQGTQVTVSS | low polyreactivity |
